Measured values reported in US20250361320A1 (Bristol-Myers Squibb, published 2025).
Positions count from the first letter of the chain named.

T1: human CEACAM5 on cells (MKN45, BxPC-3, Ls174T, HCT116-huCEACAM5) (human, UniProt P06731 35-685)
T1 sequence: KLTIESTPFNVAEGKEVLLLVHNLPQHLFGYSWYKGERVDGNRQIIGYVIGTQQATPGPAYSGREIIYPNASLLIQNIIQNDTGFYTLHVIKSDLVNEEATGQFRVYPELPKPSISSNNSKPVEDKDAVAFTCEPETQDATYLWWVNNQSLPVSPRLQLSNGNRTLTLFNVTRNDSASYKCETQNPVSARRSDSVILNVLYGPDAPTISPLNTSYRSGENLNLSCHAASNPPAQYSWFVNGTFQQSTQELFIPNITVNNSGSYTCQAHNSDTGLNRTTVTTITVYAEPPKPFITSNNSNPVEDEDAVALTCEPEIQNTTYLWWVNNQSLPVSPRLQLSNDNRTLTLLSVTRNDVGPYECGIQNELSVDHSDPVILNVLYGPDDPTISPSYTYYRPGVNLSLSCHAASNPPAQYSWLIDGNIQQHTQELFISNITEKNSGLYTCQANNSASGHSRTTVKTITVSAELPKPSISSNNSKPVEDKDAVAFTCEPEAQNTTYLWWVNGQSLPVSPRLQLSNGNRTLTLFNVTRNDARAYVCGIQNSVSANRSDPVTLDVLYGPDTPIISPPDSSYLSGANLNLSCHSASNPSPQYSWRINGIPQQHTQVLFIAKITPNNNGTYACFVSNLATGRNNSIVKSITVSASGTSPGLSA

T2: cynomolgus CEACAM5 on cells (HCT116-cyCEACAM5) (cynomolgus (Macaca fascicularis))
T2 construct: also called cynoCEACAM-5
T2 chain: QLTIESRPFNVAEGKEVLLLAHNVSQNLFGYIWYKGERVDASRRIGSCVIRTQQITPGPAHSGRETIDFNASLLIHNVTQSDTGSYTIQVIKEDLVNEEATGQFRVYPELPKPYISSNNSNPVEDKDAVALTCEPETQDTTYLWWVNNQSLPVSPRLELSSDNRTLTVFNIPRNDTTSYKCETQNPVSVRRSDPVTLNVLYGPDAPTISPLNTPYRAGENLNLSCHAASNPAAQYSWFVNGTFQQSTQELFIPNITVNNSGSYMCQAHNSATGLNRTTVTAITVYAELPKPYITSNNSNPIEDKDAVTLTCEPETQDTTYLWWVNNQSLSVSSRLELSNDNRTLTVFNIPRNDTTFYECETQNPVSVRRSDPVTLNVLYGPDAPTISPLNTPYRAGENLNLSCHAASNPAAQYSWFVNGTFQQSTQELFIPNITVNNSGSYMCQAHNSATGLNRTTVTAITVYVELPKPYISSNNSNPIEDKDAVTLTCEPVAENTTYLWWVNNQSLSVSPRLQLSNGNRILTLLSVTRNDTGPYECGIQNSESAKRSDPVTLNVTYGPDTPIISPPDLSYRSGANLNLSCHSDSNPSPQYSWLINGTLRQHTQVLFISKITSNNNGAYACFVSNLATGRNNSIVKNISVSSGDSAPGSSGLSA

B1: MBP003 (hIgG1 progeny of MBN001) (antibody, V domains shown)
VH: QVQLVESGGGVVQPGRSLRLSCAASGITFSSHGMHWVRQAPGKGLEWVTFISYDGSYKSYVDSVKGRFTISRDNSKNTLYLQMNSLRAEDTAVYYCATGLTGTGAFDIWGQGTMVTVSS
VL: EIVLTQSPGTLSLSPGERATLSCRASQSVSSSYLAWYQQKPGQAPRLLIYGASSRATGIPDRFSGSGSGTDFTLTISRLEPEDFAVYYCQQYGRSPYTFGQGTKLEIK
B2: MBP004 (hIgG1.3f progeny of MBN001) (antibody, V domains shown)
VH: B1 VH
VL: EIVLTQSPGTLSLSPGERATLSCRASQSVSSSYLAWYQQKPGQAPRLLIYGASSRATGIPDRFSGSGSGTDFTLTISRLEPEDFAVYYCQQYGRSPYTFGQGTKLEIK
B3: MBP002 (hIgG1 progeny of MBN001) (antibody, V domains shown)
VH: B1 VH with G104N, F106L
VL: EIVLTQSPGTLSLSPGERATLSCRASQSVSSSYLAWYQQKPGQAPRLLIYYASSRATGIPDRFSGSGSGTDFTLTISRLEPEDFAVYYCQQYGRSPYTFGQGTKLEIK
B4: MBP010 (hIgG1.3f progeny of MBN001) (antibody, V domains shown)
VH: B1 VH with G55S
VL: EIVLTQSPGTLSLSPGERATLSCRASQSVSSSYLAWYQQKPGQAPRLLIYGASSRATGIPDRFSGSGSGTDFTLTISRLEPEDFAVYYCQQNKRSPYTFGQGTKLEIK
B5: MBP006 (hIgG1.3f progeny of MBN001) (antibody, V domains shown)
VH: B1 VH with K58I, F106N
VL: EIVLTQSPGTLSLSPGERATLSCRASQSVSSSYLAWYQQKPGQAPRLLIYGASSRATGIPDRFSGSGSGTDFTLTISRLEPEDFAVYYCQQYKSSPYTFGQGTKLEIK
B6: MBP008 (hIgG1.3f progeny of MBN001) (antibody, V domains shown)
VH: B1 VH with G104N, F106L
VL: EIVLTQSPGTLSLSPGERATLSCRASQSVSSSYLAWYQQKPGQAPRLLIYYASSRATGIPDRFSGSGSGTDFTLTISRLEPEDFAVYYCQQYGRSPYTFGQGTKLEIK
B7: MBP007 (hIgG1.3f progeny of MBN001) (antibody, V domains shown)
VH: B1 VH with T28Y, F106N
VL: B4 VL with R94P
B8: MBP011 (hIgG1.3f progeny of MBN001) (antibody, V domains shown)
VH: B1 VH with Y57I
VL: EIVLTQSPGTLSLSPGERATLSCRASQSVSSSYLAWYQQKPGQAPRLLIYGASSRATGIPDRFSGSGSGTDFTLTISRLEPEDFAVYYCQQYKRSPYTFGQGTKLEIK
B9: MBP005 (hIgG1.3f progeny of MBN001) (antibody, V domains shown)
VH: B1 VH with T28Y
VL: not shown
B10: MBP009 (hIgG1.3f progeny of MBN001) (antibody, V domains shown)
VH: B1 VH with T28Y
VL: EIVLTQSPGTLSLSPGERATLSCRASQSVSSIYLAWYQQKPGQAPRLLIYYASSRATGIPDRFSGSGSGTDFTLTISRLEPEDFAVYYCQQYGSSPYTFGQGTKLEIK
B11: anti-CEACAM5 mAb MBN001 (antibody, V domains shown)
VH: B1 VH with S7T, A40S, T69A, A88P
VL: not shown
notes: also called MBN001 parent; bin 1 lead

Target: T1, human CEACAM5 on cells (MKN45, BxPC-3, …)
Test: cell-based or functional assay

What does the source list for B1?
Ls174T 5-day cytotoxicity (AUC), antibody with cytotoxic payload: 18500; MKN45 5-day cytotoxicity (AUC), antibody with cytotoxic payload: 24400

For B2, which “Ls174T 5-day cytotoxicity (AUC), antibody with cytotoxic payload” value (“Ls174T 5-day cytotoxicity (AUC)” for short) is on record?
The value was 865.

What about the “MKN45 5-day cytotoxicity (AUC), antibody with cytotoxic payload” value (“MKN45 5-day cytotoxicity (AUC), antibody” below) of the same binder?
The value was 2380.

With B3 as the binder, how does the “Ls174T 5-day cytotoxicity (AUC)” value read?
Its value is 18900.

What about the “MKN45 5-day cytotoxicity (AUC), antibody” value of the same binder?
Its value is 24100.

What does the source list for B4?
Ls174T 5-day cytotoxicity (AUC), antibody with cytotoxic payload: 910; MKN45 5-day cytotoxicity (AUC), antibody with cytotoxic payload: 1360

B5 was tested. Which “Ls174T 5-day cytotoxicity (AUC)” value did it give?
The value was 902.

What about the “MKN45 5-day cytotoxicity (AUC), antibody” value of the same binder?
Its value is 2440.

How did the “Ls174T 5-day cytotoxicity (AUC)” value turn out when B6 was run?
The value was 1140.

What about the “MKN45 5-day cytotoxicity (AUC), antibody” value of the same binder?
Its value is 2200.

Which results are given for B7?
Ls174T 5-day cytotoxicity (AUC), antibody with cytotoxic payload: 834; MKN45 5-day cytotoxicity (AUC), antibody with cytotoxic payload: 2070

With B8 as the binder, how does the “Ls174T 5-day cytotoxicity (AUC)” value read?
Its value is 939.

And the “MKN45 5-day cytotoxicity (AUC), antibody” value?
The value was 1770.

What does the source list for B9?
Ls174T 5-day cytotoxicity (AUC), antibody with cytotoxic payload: 964; MKN45 5-day cytotoxicity (AUC), antibody with cytotoxic payload: 2350

B10 was tested. Which “Ls174T 5-day cytotoxicity (AUC)” value did it give?
Its value is 1040.

What about the “MKN45 5-day cytotoxicity (AUC), antibody” value of the same binder?
Its value is 2200.

Target: T2, cynomolgus CEACAM5 on cells …
Test: cell binding, HCT-116 cyCEACAM5 cells

For B11, which EC50 is on record?
The EC50 was 82.2 nM.
